Data as given in patent publication US20180231548.

What was measured:
[1] = target: T1, Methyl Red (MR)-AAPV-NBD-UBI29-41
T1 chain: AAPVKTGRAKRRMQYNRR

[2] = target: TAMRA-AAPV-NBD-PMX

B1: human neutrophil elastase (protein)
chain: IVGGRRARPHAWPFMVSLQLRGGHFCGATLIAPNFVMSAAHCVANVNVRAVRVVLGAHNLSRREPTRQVFAVQRIFENGYDPVNLLNDIVILQLNGSATINANVQVAQLPAQGRRLGNGVQCLAMGWGLLGRNRGIASVLQELNVTVVTSLCRRSNVCTLVRGRQAGVCFGDSGSPLVCNGLIHGIASFVRGGCASGLYPDAFAPVAQFVNWIDSIIQ
bacterial labelling by NBD after cleavage of the probe; confocal images of a co-culture of bacteria and human neutrophils [1]: These images confirm the ability of the probe to be cleaved by neutrophil derived HNE and to label bacteria
fluorescence of the cleaved TAMRA compound (spectrophotometer) and NBD labelling of bacteria after cleavage [2]: the fluorescence of the cleaved TAMRA compound increases in an elastase dependent manner and are inhibited with an elastase inhibitor such as sivelestat
